# Results reported in paper PMC4729957, “The Atg1–kinase complex tethers Atg9-vesicles to initiate autophagy” (Nature Communications, 2016).
# T1: Atg9^core (Atg9^281–779), reconstituted in proteoliposomes (S. cerevisiae) (UniProt Q12142)
# T1 sequence: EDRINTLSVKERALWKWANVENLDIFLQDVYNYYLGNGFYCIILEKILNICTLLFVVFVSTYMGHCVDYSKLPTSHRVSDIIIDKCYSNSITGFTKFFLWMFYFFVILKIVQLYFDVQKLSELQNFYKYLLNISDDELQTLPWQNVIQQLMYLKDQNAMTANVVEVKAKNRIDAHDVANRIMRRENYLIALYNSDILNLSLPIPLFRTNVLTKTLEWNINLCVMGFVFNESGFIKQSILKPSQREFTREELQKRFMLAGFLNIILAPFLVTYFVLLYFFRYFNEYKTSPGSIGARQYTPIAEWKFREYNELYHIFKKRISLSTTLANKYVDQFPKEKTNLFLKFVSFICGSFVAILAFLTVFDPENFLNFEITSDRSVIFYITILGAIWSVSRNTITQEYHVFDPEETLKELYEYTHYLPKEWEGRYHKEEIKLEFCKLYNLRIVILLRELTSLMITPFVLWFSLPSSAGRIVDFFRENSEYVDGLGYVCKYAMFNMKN
# B1: Atg9^core (Atg9^281–779), reconstituted in proteoliposomes (domain or fragment, S. cerevisiae, UniProt Q12142 281-779, looked up)
# chain: EDRINTLSVKERALWKWANVENLDIFLQDVYNYYLGNGFYCIILEKILNICTLLFVVFVSTYMGHCVDYSKLPTSHRVSDIIIDKCYSNSITGFTKFFLWMFYFFVILKIVQLYFDVQKLSELQNFYKYLLNISDDELQTLPWQNVIQQLMYLKDQNAMTANVVEVKAKNRIDAHDVANRIMRRENYLIALYNSDILNLSLPIPLFRTNVLTKTLEWNINLCVMGFVFNESGFIKQSILKPSQREFTREELQKRFMLAGFLNIILAPFLVTYFVLLYFFRYFNEYKTSPGSIGARQYTPIAEWKFREYNELYHIFKKRISLSTTLANKYVDQFPKEKTNLFLKFVSFICGSFVAILAFLTVFDPENFLNFEITSDRSVIFYITILGAIWSVSRNTITQEYHVFDPEETLKELYEYTHYLPKEWEGRYHKEEIKLEFCKLYNLRIVILLRELTSLMITPFVLWFSLPSSAGRIVDFFRENSEYVDGLGYVCKYAMFNMKN
# notes: Atg9, S. cerevisiae BY4741, conserved core region, residues 281–779; modified pET28a(+) vector; about 50% of the protein in the proteoliposomes has its cytoplasmic domains outside; liposomes of cholesterol, POPE, POPC, POPS, without PI; also called Atg9–PLs; Atg9-PL; source: E. coli Rosetta, solubilised in LDAO, purified (Ni-NTA, SEC), reconstituted in liposomes; not shown: His tag, C-terminal, …
# Legend:
# [1] = biological target: pentameric Atg1–kinase complex (Atg1^PC) (S. cerevisiae) (UniProt P53104); assay: SEC-MALS; Atg1^PC injected at 3.4 mg ml^−1, 100 μl, Superose-6 10/300GL
# Atg1–Atg13 subcomplex = biological target: T2, Atg1–Atg13 subcomplex (S. cerevisiae, UniProt P53104 1-897; Q06628 1-738, phosphothreonine at 226 (T226)); assay: SEC; complexes assembled from purified subunits or subcomplexes, 30 min at room temperature, then gel filtration on Superose 6; conditions: both partners purified
# T2 construct: Atg1, S. cerevisiae BY4741; Atg13, S. cerevisiae BY4741; source: assembled from purified subunits (Atg1 from High Five cells, Atg13 from E. coli Rosetta), gel filtration on Superose 6
# T2 sequence (P53104 whole entry, chain 1 of 2): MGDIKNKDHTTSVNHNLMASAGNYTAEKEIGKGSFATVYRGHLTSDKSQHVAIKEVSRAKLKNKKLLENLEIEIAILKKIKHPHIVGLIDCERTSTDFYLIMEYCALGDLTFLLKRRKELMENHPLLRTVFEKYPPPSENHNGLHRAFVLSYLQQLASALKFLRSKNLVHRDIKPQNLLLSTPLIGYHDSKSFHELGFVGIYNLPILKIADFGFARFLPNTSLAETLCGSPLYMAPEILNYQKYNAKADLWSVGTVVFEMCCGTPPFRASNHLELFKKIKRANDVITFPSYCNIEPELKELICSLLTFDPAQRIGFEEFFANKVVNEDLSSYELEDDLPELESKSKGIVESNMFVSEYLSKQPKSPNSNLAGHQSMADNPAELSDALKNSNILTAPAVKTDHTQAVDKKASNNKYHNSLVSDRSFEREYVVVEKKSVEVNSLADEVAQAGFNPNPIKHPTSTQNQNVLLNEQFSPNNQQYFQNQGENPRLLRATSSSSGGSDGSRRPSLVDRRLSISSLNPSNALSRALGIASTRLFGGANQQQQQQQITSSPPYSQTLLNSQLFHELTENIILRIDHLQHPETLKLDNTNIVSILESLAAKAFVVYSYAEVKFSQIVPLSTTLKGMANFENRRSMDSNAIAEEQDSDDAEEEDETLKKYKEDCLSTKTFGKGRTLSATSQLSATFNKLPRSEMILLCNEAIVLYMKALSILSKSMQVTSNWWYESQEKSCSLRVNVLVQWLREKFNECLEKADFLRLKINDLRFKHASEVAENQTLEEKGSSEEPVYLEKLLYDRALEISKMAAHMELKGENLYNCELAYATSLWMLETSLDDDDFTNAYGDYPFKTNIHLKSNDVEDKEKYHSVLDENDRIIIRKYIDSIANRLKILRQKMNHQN
# T2 sequence (Q06628 whole entry, chain 2 of 2): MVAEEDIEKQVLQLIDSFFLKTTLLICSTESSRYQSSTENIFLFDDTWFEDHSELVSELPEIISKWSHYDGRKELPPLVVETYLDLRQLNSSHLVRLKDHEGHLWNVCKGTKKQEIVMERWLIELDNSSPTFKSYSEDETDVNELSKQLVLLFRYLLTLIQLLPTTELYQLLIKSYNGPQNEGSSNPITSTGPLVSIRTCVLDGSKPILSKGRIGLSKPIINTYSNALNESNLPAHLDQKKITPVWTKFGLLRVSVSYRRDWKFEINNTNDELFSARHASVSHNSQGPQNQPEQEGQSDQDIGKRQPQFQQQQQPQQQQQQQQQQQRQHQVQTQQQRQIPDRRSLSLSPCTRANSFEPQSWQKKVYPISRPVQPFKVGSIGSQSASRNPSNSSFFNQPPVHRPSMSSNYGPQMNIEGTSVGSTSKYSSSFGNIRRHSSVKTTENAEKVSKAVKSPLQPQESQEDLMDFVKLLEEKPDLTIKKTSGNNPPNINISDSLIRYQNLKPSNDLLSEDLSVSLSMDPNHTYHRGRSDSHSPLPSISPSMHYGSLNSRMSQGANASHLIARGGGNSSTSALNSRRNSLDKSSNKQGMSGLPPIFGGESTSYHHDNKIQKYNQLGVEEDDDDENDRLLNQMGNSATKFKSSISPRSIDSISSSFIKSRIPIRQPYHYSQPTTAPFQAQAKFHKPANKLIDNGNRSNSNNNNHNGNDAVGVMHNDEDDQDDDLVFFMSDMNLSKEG
# [2] = biological target: the molecule itself; assay: dynamic light scattering; Stokes radii (RH) of the purified proteins and complexes in solution
# [3] = biological target: T1, Atg9^core (Atg9^281–779), reconstituted in proteoliposomes (S. cerevisiae)
# [4] = biological target: B1; assay: co-floatation with proteoliposomes; Atg9 variant held in proteoliposomes (synthetic lipids without PI), partner in solution at 1:1, Nycodenz step gradient, 650,000g 2 h at 4 °C, 25 mM HEPES pH 7.0, 100 mM NaCl; top fraction read by SDS–PAGE or α-myc immunoblot; conditions: both partners purified
# [5] = biological target: the molecule itself; assay: not stated; recombinantly expressed Atg17 fragment; how the dimer was shown is not told
# [6] = biological target: T3, Atg1^PC with myc-tagged Atg17 (S. cerevisiae, UniProt P53104 1-897; Q06628 1-738; Q06410 1-417; Q12421 1-196; Q12092 1-213, phosphothreonine at 226 (T226)); assay: co-floatation with proteoliposomes; Atg9 variant held in proteoliposomes (synthetic lipids without PI), partner in solution at 1:1, Nycodenz step gradient, 650,000g 2 h at 4 °C, 25 mM HEPES pH 7.0, 100 mM NaCl; top fraction read by SDS–PAGE or α-myc immunoblot; conditions: both partners purified
# T3 construct: Atg1, S. cerevisiae BY4741; Atg13, S. cerevisiae BY4741; Atg17, S. cerevisiae BY4741; Atg31, S. cerevisiae BY4741; Atg29, S. cerevisiae BY4741; the form detected by α-myc immunoblot in the co-floatation experiments; also called Atg17^TC combined with Atg1–Atg13; source: purified Atg1–Atg13 combined with purified Atg17^TC; not shown: myc, C-terminal, kept; copies: 2 + 2 + 2 + 2 + 2
# T3 sequence (P53104 whole entry, chain 1 of 2): as the sequence (P53104 whole entry, chain 1 of 2) above
# T3 sequence (Q06628 whole entry, chain 2 of 2): as the sequence (Q06628 whole entry, chain 2 of 2) above
# [7] = biological target: T4, Atg17^TC (myc-tagged Atg17) with Atg13 alone (S. cerevisiae, UniProt Q06628 1-738; Q06410 1-417; Q12421 1-196; Q12092 1-213); assay: as above; conditions: both partners purified
# T4 construct: Atg13, S. cerevisiae BY4741; Atg17, S. cerevisiae BY4741; Atg31, S. cerevisiae BY4741; Atg29, S. cerevisiae BY4741; it was not isolated as such; also called Atg17^TC in the presence of Atg13; source: purified Atg13 combined with purified Atg17^TC; not shown: myc, C-terminal, kept; copies: + 2 + 2 + 2
# T4 sequence (Q06628 whole entry, one chain of several): as the sequence (Q06628 whole entry, chain 2 of 2) above
molecule,measurement,setting,value
"pentameric Atg1–kinase complex (Atg1^PC), P53104 1-897; Q06628 1-738; Q06410 1-417; Q12421 1-196; Q12092 1-213",stoichiometry N,[1],2
"Atg17–Atg31–Atg29 trimeric complex (Atg17^TC) (complex, S. cerevisiae, Atg17, S. cerevisiae BY4741; Atg31, S. cerevisiae BY4741; Atg29, S. cerevisiae BY4741; dimer of trimers through Atg17; also produced by combining Atg17 with co-expressed Atg31–Atg29; also called Atg17-Atg31–Atg29 complex; source: E. coli Rosetta, co-expressed from pST39, purified (Ni-NTA, SEC); not shown: His6, N-terminal, cleaved; copies: 2 + 2 + 2) chain 1: MNEADVTKFVNNARKTLTDAQLLCSSANLRIVDIKKKLSSWQLSISKLNFLIVGLRQQGKFLYTILKEGIGTKLIQKQWNQAVLVVLVDEMKYWQYEITSKVQRLDGIVNELSISEKDDTDPSKLGDYISRDNVNLLNDKLKEVPVIERQIENIKLQYENMVRKVNKELIDTKLTDVTQKFQSKFGIDNLMETNVAEQFSRELTDLEKDLAEIMNSLTQHFDKTLLLQDKKIDNDEREELFKVVQGDDKELYNIFKTLHEVIDDVDKTILNLGQFLQAKIKEKTELHSEVSEIINDFNRNLEYLLIFKDISNLIDSFKNSCTQDIQTTKELCEFYDNFEESYGNLVLEAKRRKDVANRMKTILKDCEKQLQNLDAQDQEERQNFIAENGTYLPETIWPGKIDDFSSLYTLNYNVKNP chain 2: MNVTVTVYDKNVKYRLEENIKNNKGPSNDDQPAYNNESKSTDGSDYAMFPTNIKYIFEDNNDELVDSSDAALTAGIDKVGDELENVIIVQLDESGSLEDITLISDQYELLSHRTNSLSLEENQMRTLSSHGDDKSNDEEEELSVDSDRFRVDSDIELDVISQFCDLSPFLRDLSLNDLIKLYVTQNEQLQMLSNSV chain 3: MIMNSTNTVVYIKVKGRRPQGFLDPPKFEWNGTKERQLWTMVSNLNYSQDQIDWQNLSKIFETPEFFLKKRTYKLFAEHLELLQLQLEKKRDLEKYSNDQVNEGMSDLIHKYTPTLQNDNLLNVSASPLTTERQDSEEVETEVTNEALQHLQTSKILNIHKKTSDSENKPNDKLDKDGINKEMECGSSDDDLSSSLSVSKSALEEALMDRLQF",binding result,Atg1–Atg13 subcomplex,binds
same,stoichiometry N,[2],2
same,"RH of Atg9–PLs prepared in the presence of Atg17^TC, by DLS (vesicle tethering)",[3],72 nm
"myc-tagged Atg17 (Atg17^myc), recombinant (natural protein, S. cerevisiae, UniProt Q06410 1-417, looked up, Atg17, S. cerevisiae BY4741, open reading frame from genomic DNA; expressed from pST39 with a myc-tag at the C-terminus of Atg17; also called recombinant myc-tagged Atg17; source: E. coli Rosetta, purified; not shown: myc, C-terminal, kept) MNEADVTKFVNNARKTLTDAQLLCSSANLRIVDIKKKLSSWQLSISKLNFLIVGLRQQGKFLYTILKEGIGTKLIQKQWNQAVLVVLVDEMKYWQYEITSKVQRLDGIVNELSISEKDDTDPSKLGDYISRDNVNLLNDKLKEVPVIERQIENIKLQYENMVRKVNKELIDTKLTDVTQKFQSKFGIDNLMETNVAEQFSRELTDLEKDLAEIMNSLTQHFDKTLLLQDKKIDNDEREELFKVVQGDDKELYNIFKTLHEVIDDVDKTILNLGQFLQAKIKEKTELHSEVSEIINDFNRNLEYLLIFKDISNLIDSFKNSCTQDIQTTKELCEFYDNFEESYGNLVLEAKRRKDVANRMKTILKDCEKQLQNLDAQDQEERQNFIAENGTYLPETIWPGKIDDFSSLYTLNYNVKNP",binding result,[4],binds
"Atg17^1–354-Atg31–Atg29 (Atg17^monoTC) (complex, S. cerevisiae, Atg31, S. cerevisiae BY4741; Atg29, S. cerevisiae BY4741; source: E. coli Rosetta, co-expressed from pST39, purified (Ni-NTA, SEC); not shown: His6, N-terminal, cleaved; copies: + +) chain 1: MNEADVTKFVNNARKTLTDAQLLCSSANLRIVDIKKKLSSWQLSISKLNFLIVGLRQQGKFLYTILKEGIGTKLIQKQWNQAVLVVLVDEMKYWQYEITSKVQRLDGIVNELSISEKDDTDPSKLGDYISRDNVNLLNDKLKEVPVIERQIENIKLQYENMVRKVNKELIDTKLTDVTQKFQSKFGIDNLMETNVAEQFSRELTDLEKDLAEIMNSLTQHFDKTLLLQDKKIDNDEREELFKVVQGDDKELYNIFKTLHEVIDDVDKTILNLGQFLQAKIKEKTELHSEVSEIINDFNRNLEYLLIFKDISNLIDSFKNSCTQDIQTTKELCEFYDNFEESYGNLVLEAKRRKD chain 2: MNVTVTVYDKNVKYRLEENIKNNKGPSNDDQPAYNNESKSTDGSDYAMFPTNIKYIFEDNNDELVDSSDAALTAGIDKVGDELENVIIVQLDESGSLEDITLISDQYELLSHRTNSLSLEENQMRTLSSHGDDKSNDEEEELSVDSDRFRVDSDIELDVISQFCDLSPFLRDLSLNDLIKLYVTQNEQLQMLSNSV chain 3: MIMNSTNTVVYIKVKGRRPQGFLDPPKFEWNGTKERQLWTMVSNLNYSQDQIDWQNLSKIFETPEFFLKKRTYKLFAEHLELLQLQLEKKRDLEKYSNDQVNEGMSDLIHKYTPTLQNDNLLNVSASPLTTERQDSEEVETEVTNEALQHLQTSKILNIHKKTSDSENKPNDKLDKDGINKEMECGSSDDDLSSSLSVSKSALEEALMDRLQF",binding result,Atg1–Atg13 subcomplex,binds
"thioredoxin-tagged Atg17^354–417 (domain or fragment, S. cerevisiae, UniProt Q06410 354-417, looked up, also called dimerization domain; source: E. coli Rosetta, purified) DVANRMKTILKDCEKQLQNLDAQDQEERQNFIAENGTYLPETIWPGKIDDFSSLYTLNYNVKNP",binding result,[4],binds
"thioredoxin-tagged Atg17^235–417 (domain or fragment, S. cerevisiae, UniProt Q06410 235-417, looked up, source: E. coli Rosetta, purified) DEREELFKVVQGDDKELYNIFKTLHEVIDDVDKTILNLGQFLQAKIKEKTELHSEVSEIINDFNRNLEYLLIFKDISNLIDSFKNSCTQDIQTTKELCEFYDNFEESYGNLVLEAKRRKDVANRMKTILKDCEKQLQNLDAQDQEERQNFIAENGTYLPETIWPGKIDDFSSLYTLNYNVKNP",binding result,[4],binds
same,stoichiometry N,[5],2
B1,binding result,[6],binds
same,binding result,[7],binds
"thioredoxin-tagged Atg17^235–354 (domain or fragment, S. cerevisiae, UniProt Q06410 235-354, looked up, source: E. coli Rosetta, purified) DEREELFKVVQGDDKELYNIFKTLHEVIDDVDKTILNLGQFLQAKIKEKTELHSEVSEIINDFNRNLEYLLIFKDISNLIDSFKNSCTQDIQTTKELCEFYDNFEESYGNLVLEAKRRKD",binding result,[4],binds
